Measured values published in patent US20240417476A1 (ATYR PHARMA, published 2024).
Ends that are not written are not given here.

How the values were obtained:
[1] = target: T1, NRP2a_scan 1 peptide (biotinylated) (human, also: biotin-conjugated, site not given here); experiment: BLI, peptide on sensor;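 also: octet RED96e biolayer interferometry with biotin-conjugated NRP2 peptides spanning isoform-specific regions (human and mouse) loaded on biosensors, antibodies applied at 50 nM, association read over 300 s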
T1 peptide: VDIPEIHEREGY

[2] = target: Short NRP2A peptide (biotinylated) (human, biotin-conjugated, site not stated); experiment: BLI, peptide on sensor;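 also: octet RED96e biolayer interferometry with biotin-conjugated NRP2 peptides spanning isoform-specific regions (human and mouse) loaded on biosensors, antibodies applied at 50 nM, association read over 300 s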
[3] = target: T2, NRP2a_scan 7 peptide (biotinylated) (human, also: biotin-conjugated, site not given here); experiment: BLI, peptide on sensor;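 also: octet RED96e biolayer interferometry with biotin-conjugated NRP2 peptides spanning isoform-specific regions (human and mouse) loaded on biosensors, antibodies applied at 50 nM, association read over 300 s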
T2 peptide: EYEVDWSNSSSA

[4] = target: T3, NRP2a_scan 3 peptide (biotinylated) (human, also: biotin-conjugated, site not given here); experiment: BLI, peptide on sensor;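 also: octet RED96e biolayer interferometry with biotin-conjugated NRP2 peptides spanning isoform-specific regions (human and mouse) loaded on biosensors, antibodies applied at 50 nM, association read over 300 s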
T3 peptide: HEREGYEDEIDD

[5] = target: T4, NRP2a_scan 2 peptide (biotinylated) (human, also: biotin-conjugated, site not given here); experiment: BLI, peptide on sensor
T4 peptide: PEIHEREGYEDE

[6] = target: T5, NRP2a_scan 4 peptide (biotinylated) (human, also: biotin-conjugated, site not given here); experiment: BLI, peptide on sensor
T5 peptide: EGYEDEIDDEYE

[7] = target: T6, NRP2b peptide (biotinylated) (human, biotin-conjugated, site not stated); experiment: BLI, peptide on sensor
T6 construct: also called NRP2b isoform specific peptide
T6 peptide: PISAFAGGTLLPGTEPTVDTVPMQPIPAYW

[8] = target: mNRP2b peptide (biotinylated) (mouse, biotin-conjugated, site not stated); experiment: BLI, peptide on sensor
mNRP2b peptide (biotinylated) (mouse, biotin-conjugated, site not stated), sequence (peptide, as listed by the source): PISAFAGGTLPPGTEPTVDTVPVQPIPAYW

[9] = target: T7, NRP2A peptide (biotinylated) (human, biotin-conjugated, site not stated); experiment: BLI, isoform peptide on sensor, 50 nM antibody
T7 construct: also called NPR2A; NRP2a specific peptide

[10] = target: T8, mNRP2A peptide (biotinylated) (mouse, biotin-conjugated, site not stated); experiment: BLI, peptide on sensor, 50 nM antibody
T8 construct: also called mouse NRP2 isoform a peptide

[11] = target: T9, NRP2a_scan 6 peptide (biotinylated) (human, also: biotin-conjugated, site not given here); experiment: BLI, peptide on sensor, 50 nM antibody
T9 peptide: IDDEYEVDWSNS

[12] = target: T10, Mid-NRP2A peptide (biotinylated) (human, biotin-conjugated, site not stated); experiment: BLI, peptide on sensor, 50 nM antibody
T10 peptide: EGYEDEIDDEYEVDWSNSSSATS

[13] = target: T11, Mid-mNRP2A peptide (biotinylated) (mouse, biotin-conjugated, site not stated); experiment: BLI, peptide on sensor, 50 nM antibody
T11 peptide: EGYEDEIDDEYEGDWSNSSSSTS

[14] = target: T12, NRP2a_scan 5 peptide (biotinylated) (human, also: biotin-conjugated, site not given here); experiment: BLI, peptide on sensor, 50 nM antibody
T12 peptide: EDEIDDEYEVDW

binding result [1]: no binding (tested: 50 nM)
binding result [2]: no binding (tested: 50 nM)
binding result [3]: no binding (tested: 50 nM)
binding result [4]: no binding (tested: 50 nM)
binding result [5]: no binding (tested: 50 nM)
binding result [6]: no binding (tested: 50 nM)
binding result [7]: no binding (tested: 50 nM)
binding result [8]: no binding (tested: 50 nM)
binding result [9]: binds
binding result [10]: binds
binding result [11]: binds
binding result [12]: binds
binding result [13]: binds
binding result [14]: binds
B1: aNRP2-401v2 (antibody, V domains shown)
VH: EVQLQESGGGLVKPGGSLKLSCAASGFTFSDYGMHWVRQAPEKGLEWVATISRDINTVYYADTVKGRFTISRDNAKNTLFLQVTSLRSEDTAMYYCTRGGYTDYWGQGTTLTVSS
VL: DIVMTQTPLSLPVSLGDQASISCRSSQSLVHSNGNTYLYWYLQRPGQSPKLLIYKVSNRFSGVPDRFSGSGSGTDFTLKISRVEAEDLGVYFCSQSTHVLTFGGGTKLEIK
notes: Mouse monoclonal
